The target in one assay is iC3b (human). The assay can be described thus: SPR; iC3b immobilised on a CM5 chip by maleimide coupling via Cys988; αI variants as analyte, 5 injections at 0.32-26.0 μM; 10 mM HEPES-NaOH pH 7.4, 100 mM NaCl, 5 mM MgCl2; 25 °C; steady-state analysis of maximum RU, apparent KD (saturation not reached). Background: Surface plasmon resonance follows binding to a sensor surface in real time, without labels.

For assay [1], the target named is CR3 αI domain (von Willebrand A inserted domain of the αM chain of CR3), residues 126-321, C128S/I316G (human) (UniProt P11215). The assay can be described thus: SPR; Biacore X100; CR3 αI biotinylated (NHS-PEG4-biotin) and captured on a streptavidin chip, ~900 RU; initial single-concentration injections, then 5 injections of iC3b (0.1-10.0 uM) or C3c (0.7-60.0 uM); 10 mM HEPES-NaOH pH 7.4, 100 mM NaCl, 5 mM MgCl2; 25 °C; steady-state model, saturation not reached, apparent KD.

Assay [2] concerns the target human iC3b (human) (UniProt P01024). The assay can be described thus: SPR; Biacore X100; iC3b immobilised on CM5 chip by maleimide chemistry through Cys988; αI variants as analyte (5 injections at 0.32-26.0 uM); 10 mM HEPES-NaOH pH 7.4, 100 mM NaCl, 5 mM MgCl2; 25 °C; steady-state analysis, apparent KD.
Another assay has as its target C3c (UniProt P01024 955-1303). The assay can be described thus: SPR; Biacore X100; CR3 αI biotinylated (NHS-PEG4-biotin) and captured on a streptavidin chip, ~900 RU; initial single-concentration injections, then 5 injections of iC3b (0.1-10.0 uM) or C3c (0.7-60.0 uM); 10 mM HEPES-NaOH pH 7.4, 100 mM NaCl, 5 mM MgCl2; 25 °C; steady-state model, saturation not reached, apparent KD. The note with it: both partners purified.

The target in assay [3] is human iC3b (human) (UniProt P01024). The assay can be described thus: SEC + other: SAXS; iC3b mixed with CR3 αI at 1:2 molar ratio, Superdex 200 10/300 GL, 20 mM HEPES-NaOH pH 7.5, 200 mM NaCl, 5 mM MgCl2; SAXS in continuous-flow batch mode at 4 °C.

As a reminder, the stoichiometry N is the number of molecules, sites or subunits per partner or assembly.

For the molecule “CR3 αI domain variant 1A2A (R216A/K231A/R261A/R293A) (from UniProt P11215 142-337) (domain or fragment)”, the Kd with iC3b (human) turned out to be 64.7 µM.

With “CR3 αI domain variant 1A (R261A/R293A) (from UniProt P11215 142-337) (domain or fragment)”, the Kd in the assay with iC3b (human) is 16.8 µM.

Take “CR3 αI domain variant 2A (R216A/K231A) (from UniProt P11215 142-337) (domain or fragment)”: in the assay with iC3b (human), the Kd worked out at 27.5 µM.

In the case of “human iC3b (from UniProt P01024 749-1303) (complex)”, the Kd in assay [1] amounted to 5.2 µM.

B1: CR3 αI domain (von Willebrand A inserted domain of the αM chain of CR3), residues 126-321, C128S/I316G (domain or fragment)
chain: RGSPQEDSDIAFLIDGSGSIIPHDFRRMKEFVSTVMEQLKKSKTLFSLMQYSEEFRIHFTFKEFQNNPNPRSLVKPITQLLGRTHTATGIRKVVRELFNITNGARKNAFKILVVITDGEKFGDPLGYEDVIPEADREGVIRYVIGVGDAFRSEKSRQELNTIASKPPRDHVFQVNNFEALKTIQNQLREKGFAIEG
modifications: NHS-PEG4-biotin on random amine groups (only in the SPR where CR3 αI was captured on the streptavidin chip)
notes: Made in bacteria, so not glycosylated at Asn224; also called WT; not shown: His6, N-terminal, cleaved
Turning to B1, the Kd in the assay with human iC3b (human) [2] was 7.1 µM; with C3c, ~39 µM. For the same molecule, the stoichiometry N with human iC3b (human) [3] is 1.
